Measurements taken from the supplement of paper PMC9170038.

Test system: MS2 coat protein
Assay: apparent KD of MS2 coat protein; designed switch direction (-1 OFF switch, 1 ON switch): -1; higher = weaker reporter binding
Method in brief: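 The buffer was Tris-HCl pH 7.5 with KCl, MgCl2, BSA, DTT, tRNA and Tween-20. In it, SNAP-549-labelled MS2 coat protein was titrated in doubling steps from 0.7 or 1.5 nM to 3 µM over chip-bound RNA switches transcribed by stalled E. coli RNA polymerase on Illumina chips. Apparent KD is the per-design median over clusters of curve fits to normalised fluorescence.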

[1] = Eterna round: R95, input ligand: microRNA oligo, concentration not stated
[2] = input ligand: microRNA oligo, concentration not stated
[3] = Eterna round: R95, input ligand: FMN 200 uM
[4] = Eterna round: R95, input ligand: none

Sequence	apparent KD of MS2 coat protein (input ligand: FMN 200 uM) [nM]	apparent KD of MS2 coat protein (input ligand: none) [nM]	apparent KD of MS2 coat protein [1] [nM]	other results
GCCUCACUUGAGGAUCACCCAAGUCAGGAUAUCUACAGGCCGGCCAUACCGACCUGCAAGAGAAGGGACUCUAA [Aristi] (Eterna round: R97, puzzle: Exclusion 1)	211	31.4		
GCCUCGUCAGGAUAUUGGGAAGGCUGUUUUAUGAUUGCCCACAAGAAGGGACAUGAGGAUCACCCAUGUACAUU [Eternabot (L1) Solution 51] (Eterna round: R97, puzzle: Exclusion 4)	63.3	32.5		
GCCUGUGAAGGAUAUACAUGAGGAUCACCCAUGUGGCGGGCAUACCCGCCGAGACCGUGUAGAAGGUCAUAGUA [Telamais] (puzzle: Exclusion 3)			49.9	
GCCUUACAUGAGGAUCACCCAUGUCAGGAUAUGUCAGAGUAGGUAAAACACCACUCUAAUAGAAGGGACAUGCA [Diisarlais] (puzzle: Exclusion 1)			16.5	
GCGAUAAACGAGGAUAUCGUAUCGGAAACGAUACGAGAAGGUGUAACAUGAGGAUCACCCAUGUUCCUCAACGC [Mat - Exclusion 6 - Eli Mod - D65] (puzzle: Exclusion 6)			36.3	
GCGAUGUGAGGAUAUACAAGGUGUGAGAGUGCUUGAACGUAACAUGAGGAUCACCCAUGUAGAAGGUAUGUGAU [Eternabot (L1) Solution 29] (Eterna round: R97, puzzle: Exclusion 2)	109	181		
GCGCAAACGCCAAAAGGCGAAAUUACAUGAGGAUCACCCAUGUAGGAUAUCGAUUGCUUUGCAGUCGAGAAGGACAUGAUGCGC [JL ENG3 3.80 Mod 1] (Eterna round: R96, puzzle: Exclusion NG 3)				apparent KD of MS2 coat protein [2]: 13.6 nM
GCGGAAAACUUAGGAUAUCAGGGCUGCACAUGAGGAUCACCCAUGUGAUAGCUCUAACGCGGUCCUGAGAAGGGAGAGCCCGGA [Rarasoa] (Eterna round: R96, puzzle: Exclusion NG 2)	94.2	44.7		apparent KD of MS2 coat protein [2]: 43.8 nM
GCGGUACAUGAGGAUCACCCAUGUUAGGAUAUUCUACGUCUCUAAUCUGAAACGCAAGGAAGAAGGAGCGUGGG [Eternabot (Original) Solution 21] (Eterna round: R97, puzzle: Exclusion 1)	83.7	28.2		
GCUCGCUGAGGAUAUACUAAAACACGCUCUGGGAGGUCUUGACUUGAGGAUCACCCAAGUAGAAGGCAGUUAAA [Zaesleeran] (Eterna round: R97, puzzle: Exclusion 2)	437	450		
GCUCGUACGGAGGAUAUAGAUUUCGGAAACCGACUAGAAGGCCGAACAUGAGGAUCACCCAUGUGAUUUAUAUC [Gesozarequ] (puzzle: Exclusion 6)			18.9	apparent KD of MS2 coat protein [3]: 23.2 nM; apparent KD of MS2 coat protein [4]: 23.4 nM
GCUCUGCGAGGAUAUACAUGAGGAUCACCCAUGUGCGAGUUACUUGUGAGGUCGGUUGGUAGAAGGCGCGGAGG [Mat - Exclusion 3 - Mod of JL D100] (puzzle: Exclusion 3)			77.5	
GCUGGUAUAGGAUAUACGUAAGACGUGGUCCACAGUUAAUUACAUGAGGAUCACCCAUGUAGAAGGAUGGAAGC [Eternabot (L2) Solution 95] (Eterna round: R97, puzzle: Exclusion 2)	298	65.8		
GCUGGUCGAGGAUAUACAAUCGUGCUUCGGCACGUAAGGUCACAUGAGGAUCACCCAUGUAGAAGGCGACCAGC [E2/2-A2] (Eterna round: R97, puzzle: Exclusion 2)	175	30.9		
GCUGGUCGAGGAUAUACAUGAGGAUCACCCAUGUAGAUCAACCAGCUUCGGCUGGAAUGUAGAAGGCGACCAGC [E3/5-A4] (Eterna round: R97, puzzle: Exclusion 3)	117	19.5		
GCUGGUCGAGGAUAUACAUGAGGAUCACCCAUGUGGUCACGUGACGAUAGUCACGAAUGUAGAAGGUGACCAGC [E3/3-B1] (Eterna round: R97, puzzle: Exclusion 3)	107	1760		
GCUGGUCGAGGAUAUAUAUGACGUGCUUCGGCACGAAGAUCACAUGAGGAUCACCCAUGUAGAAGGCGACCAGC [E2/8-A1] (Eterna round: R97, puzzle: Exclusion 2)	1480	156		

Sequence	apparent KD of MS2 coat protein (input ligand: FMN 200 uM) [nM]	apparent KD of MS2 coat protein (input ligand: none) [nM]	apparent KD of MS2 coat protein [1] [nM]	other results
GCUGUCACCGUUAGGAUAUGUGAUUAAAUAUGAUCGCAGAAGGAACAUGAGGAUCACCCAUGUCGAUCCGUCCG [Eternabot (L1) Solution 36] (Eterna round: R97, puzzle: Brourd's mod of Exclusion 4)	34.8	23.1		
GCUUGUAGAGGAUAUACAAGGGCCUUAGCGAAUAACACCGCACAUGAGGAUCACCCAUGUAGAAGGCUACCACC [Tezausesti] (puzzle: Exclusion 2)			15.2	
GCUUGUAGAGGAUAUACAAGGGCCUUAGCGGAUAACACCGCACAUGAGGAUCACCCAUGUAGAAGGCUACCACC [Veorlace] (puzzle: Exclusion 2)			16.6	
GCUUUUGGGCAAGGAUAUCCUGCGCGGUUCUGGUUCGUGUCUGUCACAUGAGGAUCACCCAUGUGGGAGAAGGUGCCUGUGGUG [Design 71] (Eterna round: R96, puzzle: Exclusion NG 2)	38.1	23		apparent KD of MS2 coat protein [2]: 16.9 nM
GGAAAAUGAGGAUAUACAUGUUUGAUACCUCUACGCCCGCAACAUGAGGAUCACCCAUGUAGAAGGCAUGAAAA [Marius] (puzzle: Exclusion 2)			13.9	
GGAAAUCAUGUAGGAUAUGCGUGGCGAAGCUAUGCAGAAGGACAUGAGGAUCACCCAUGUGCUUCCGUCUGCGUACAGACGGAA [Mat - Exclusion NG 1 - Mod of JL - D20] (Eterna round: R96, puzzle: Exclusion NG 1)	32.3	186		apparent KD of MS2 coat protein [2]: 77.9 nM
GGAAAUCAUGUAGGAUAUGCGUGGCGAAGCUAUGCAGAAGGACAUGAGGAUCACCCAUGUGCUUCCGUCUGCGUACAGACGGUA [Mat - Exclusion NG 1 - Mod of JL - D19] (Eterna round: R96, puzzle: Exclusion NG 1)	80.2	143		apparent KD of MS2 coat protein [2]: 78.5 nM
GGAAGAAUGAGUAGUCCUCAUUGAAGAGAACAGUAAGAAACAUGAGGAUCACCCAUGUAAGAACAAGCUUUUGCUCA [JR_Sv3TOV2_Sub002] (puzzle: Sensor v3, turn-off variant 2)			699	apparent KD of MS2 coat protein [3]: 168 nM; apparent KD of MS2 coat protein [4]: 259 nM
GGAAGGUCAGGAUAUGCGAGGGAGUGGGAAAUAGGAUGGUAGCAGAAGGGACAUGAGGAUCACCCAUGUUAGGA [JR_Exclu4_Sub0101] (puzzle: Exclusion 4)			28	
GGAAGUAGAAACCGAUCCUACAUGAGGAUCACCCAUGUAGCAAGACGUGCACGCGAAGCUCGUCAGACUACCAGAAA [salish99_TOv1_r3_009] (puzzle: Sensor v3, turn-off variant 1)			286	apparent KD of MS2 coat protein [3]: 301 nM; apparent KD of MS2 coat protein [4]: 293 nM
GGAAUACAUGAGGAUCACCCAUGUAAGGAUAUGCUGAAUAACACGGAAUUAACGUGCAGCAGAAGGUACAAAGG [Mat - Mod of my Eli Mod D43] (puzzle: Exclusion 1)			63.3	apparent KD of MS2 coat protein [3]: 62.8 nM; apparent KD of MS2 coat protein [4]: 113 nM
GGAAUACCCUCGAGUUAUCACAUGAGGAUCACCCAUGUCCCAAGCCUUUUGCUCUGAGCUGCGUAUACGCAGAUGUA [Eternabot (Original) Solution 23] (Eterna round: R97, puzzle: Sensor, turn-off variant 1)	112	128		
GGACCAUAUCAGGAUAUGACUAGCCUCGGCUAGUCAGAAGGGAUGACAUGAGGAUCACCCAUGUGAUCAGGUCC [E6/1-C2] (Eterna round: R97, puzzle: Exclusion 6)	59.5	36.7		
GGACGGUUAGUUAGGAUAUGCUCUACCUCGGUAGAGCAGAAGGGACAUGAGGAUCACCCAUGUGAUAACUGUUC [Omei Ex4B B35] (Eterna round: R97, puzzle: Brourd's mod of Exclusion 4)	23.1	20.5		
GGAGAGGUAGGAUAUCCACUUUAGAACAUGAGGAUCACCCAUGUAGAACCACAUGAAAUGGGAGAAGGACCAGGGA [AK-MS2ROC-r4-exclusion5-3] (Eterna round: R97, puzzle: Exclusion 5)	65.3	56.1		
GGAGAGGUAGGAUAUGGAGGUUAAAACAUGAGGAUCACCCAUGUUAAACCUCAUGACCGACUAGAAGGACCAGUCC [AK-MS2ROC-r4-exclusion5-8] (Eterna round: R97, puzzle: Exclusion 5)	15	11.1		
